Results: US20130007924A1

Tests used:
[1] = biological target: putative receptor proteins in brush border membrane vesicles (BBMV) from European corn borer (Ostrinia nubilalis) larval midgut (Ostrinia nubilalis); test: homologous competition: unlabeled Cry1Ab against 0.5 nM 125I Cry1Ab on ECB BBMV
[2] = biological target: putative receptor proteins in brush border membrane vesicles (BBMV) from European corn borer (Ostrinia nubilalis) larval midgut (Ostrinia nubilalis); test: heterologous competition: unlabeled Cry2Aa at 1,000 nM against 0.5 nM 125I Cry1Ab on ECB BBMV

Substance | IC50 [1] [nM] | percent displacement of 125I Cry1Ab at 1,000 nM competitor [2] [%]
Cry1Ab protein (truncated Cry toxin) (from UniProt P0A370 29-612) | 3 | 
Cry2Aa protein (from UniProt P0A377 1-633) |  | < 50
